{"source": "paper PMC8596989", "key": {"[1]": {"molecular_target": "Encapsulin from Mycobacterium smegmatis with Streptavidin-tag (^StrepEncSM) (Mycobacterium smegmatis) (UniProt A0R4H0)", "test": "in-gel fluorescence against a standard curve"}, "[2]": {"molecular_target": "Encapsulin from Mycobacterium smegmatis with Streptavidin-tag (^StrepEncSM) (Mycobacterium smegmatis) (UniProt A0R4H0)", "test": "FRET or BRET"}}}
{"substance": "HaloTag construct carrying an encapsulin localization sequence (HaloTag-ELS)", "values": [{"measurement": "labeled cargo proteins per capsid (labeled cargo proteins per capsid)", "setting": "[1]", "value": 6.6}, {"measurement": "fluorophore binding sites per vesicle (fluorophore binding sites per vesicle)", "setting": "[2]", "value": "> 3"}]}
